Test results: patent US20240343798A1 (GV20 THERAPEUTICS, published 2024)

B1: KLRC1/KLRD1 heterodimeric receptor (receptor)
chain 1: not shown
chain 2: MAVFKTTLWRLISGTLGIICLSLMSTLGILLKNSFTKLSIEPAFTPGPNIELQKDSDCCSCQEKWVGYRCNCYFISSEQKTWNESRHLCASQKSSLLQLQNTDELDFMSSSQQFYWIGLSYSEEHTAWLWENGSALSQYLFPSFETFNTKNCIAYNPNGNALDESCEDKNRYICKQQLI
notes: whole, on cells; CT26 cells co-transduced with both lentiviral constructs; also called KLRC1&D1 heterodimer; KLRC1/D1

What was measured:
[1] = molecular target: T1, human IGSF8 expressed on the cell surface (human, UniProt Q969P0 28-613); experiment: cell-cell conjugate assay, labelled MC38 and CT26 cells mixed 1:1, flow cytometry
T1 construct: whole, on cells; Forced expression on CT26, MC38 or K562 cells; endogenous on A431 cells; also called full-length IGSF8
T1 sequence (looked up): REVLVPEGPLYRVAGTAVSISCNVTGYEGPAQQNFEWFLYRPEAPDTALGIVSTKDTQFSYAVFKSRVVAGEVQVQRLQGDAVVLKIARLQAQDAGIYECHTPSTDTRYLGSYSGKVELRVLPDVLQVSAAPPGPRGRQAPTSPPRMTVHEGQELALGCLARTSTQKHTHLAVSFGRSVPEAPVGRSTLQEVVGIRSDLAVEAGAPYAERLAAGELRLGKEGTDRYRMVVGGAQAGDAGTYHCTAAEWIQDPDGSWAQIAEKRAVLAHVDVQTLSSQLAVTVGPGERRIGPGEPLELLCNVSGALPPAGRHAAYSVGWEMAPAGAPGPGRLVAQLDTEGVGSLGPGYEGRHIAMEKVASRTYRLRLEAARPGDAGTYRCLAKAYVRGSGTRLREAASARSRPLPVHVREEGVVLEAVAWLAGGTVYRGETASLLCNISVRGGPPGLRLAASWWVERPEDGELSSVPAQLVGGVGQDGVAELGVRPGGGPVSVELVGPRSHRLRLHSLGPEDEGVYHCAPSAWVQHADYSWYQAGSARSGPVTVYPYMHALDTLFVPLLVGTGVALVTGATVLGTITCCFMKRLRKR
From the text: A competition assay (FIG. 23A) was then designed to test whether these seven mAbs block IGSF8 binding to the KIR3DL1/2 or the KLRC1&D1 heterodimer receptors. MC38 cells (a cell line derived from C57BL6 murine colon adenocarcinoma cells from NIH) with forced expression of IGSF8 protein on cell surface by lentiviral delivery of a human IGSF8-expression construct were labeled with CFSE (Carboxyfluorescein succinimidyi ester, Thermo). CT26 cells with forced expression of either KIR3DL1/2 or KLRC1&D1 were labeled with CellTrace Far Red (Thermo). The MC38 cells were then mixed at a 1:1 ratio with the CT26 cells for about an hour at room temperature. The formation of MC38 and CT26 cell/cell conjugates was assessed by flow cytometry.

[2] = molecular target: T2, recombinant human IGSF8 extracellular domain tagged by a human Fc region (IGSF8-hFc) (human, UniProt Q969P0 28-579); experiment: flow cytometry, IGSF8-hFc on transduced CT26 cells, MFI normalized to Thy1.1 expression
T2 construct: extracellular domain; also called IGSF8-Fc; IGSF8 hFc fusion protein; not shown: human Fc region
T2 sequence (looked up): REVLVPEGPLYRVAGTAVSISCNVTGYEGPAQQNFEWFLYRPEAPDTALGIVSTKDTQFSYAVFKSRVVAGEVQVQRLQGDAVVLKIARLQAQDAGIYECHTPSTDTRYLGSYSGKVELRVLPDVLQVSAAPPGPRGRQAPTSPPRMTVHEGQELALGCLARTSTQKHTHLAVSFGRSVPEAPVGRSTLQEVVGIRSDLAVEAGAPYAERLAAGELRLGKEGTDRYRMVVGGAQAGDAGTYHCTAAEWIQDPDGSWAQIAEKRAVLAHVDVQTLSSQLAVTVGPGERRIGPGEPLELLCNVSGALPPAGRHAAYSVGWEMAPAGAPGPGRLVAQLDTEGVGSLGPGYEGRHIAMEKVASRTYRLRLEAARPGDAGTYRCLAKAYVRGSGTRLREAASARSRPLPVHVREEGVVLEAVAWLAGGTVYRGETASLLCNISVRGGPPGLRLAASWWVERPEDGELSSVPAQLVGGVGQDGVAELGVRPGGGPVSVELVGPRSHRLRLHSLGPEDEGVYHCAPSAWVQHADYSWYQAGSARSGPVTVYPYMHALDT
Procedure: (§1) KLRC1 also contains a ITIM motif in its intracellular domain, and was known to be a inhibitory receptor of NK or CD8⁺ T cells as part of a heterodimer with KLRD1 on the cell surface. […] Specifically, 100,000 CT26 cells overexpressing the antigens (KIRs or KLRs) were washed with PBS buffer containing 2% FBS, and incubated with 100 μL IGSF8 recombinant proteins or antibodies (5 μg/mL) for 30 minutes on ice. Cells were then washed twice with wash buffer, and incubated with 100 μL of 1:100 anti-human Fc-PE antibody for 15 minutes on ice. Cells were washed twice with wash buffer and analyzed on a FACS analyzer (CytoFlex, Beckman). In these experiments, the mean fluorescence intensity (MFI) of IGSF8 binding to different CT26 cells were normalized by the expression of different KLRs on CT26 cells using an anti-thy1.1 mAb via flow cytometry.

KIR3DL1 = molecular target: T3, KIR3DL1 (human, UniProt P43629 22-444); experiment: flow cytometry, hFc fusion proteins on transduced CT26 cells, MFI normalized
T3 construct: whole, on cells; On mouse CT26 cells, lentiviral vector with a thy1.1 tag; also called KIR3DL1/2
T3 sequence (P43629 22-444): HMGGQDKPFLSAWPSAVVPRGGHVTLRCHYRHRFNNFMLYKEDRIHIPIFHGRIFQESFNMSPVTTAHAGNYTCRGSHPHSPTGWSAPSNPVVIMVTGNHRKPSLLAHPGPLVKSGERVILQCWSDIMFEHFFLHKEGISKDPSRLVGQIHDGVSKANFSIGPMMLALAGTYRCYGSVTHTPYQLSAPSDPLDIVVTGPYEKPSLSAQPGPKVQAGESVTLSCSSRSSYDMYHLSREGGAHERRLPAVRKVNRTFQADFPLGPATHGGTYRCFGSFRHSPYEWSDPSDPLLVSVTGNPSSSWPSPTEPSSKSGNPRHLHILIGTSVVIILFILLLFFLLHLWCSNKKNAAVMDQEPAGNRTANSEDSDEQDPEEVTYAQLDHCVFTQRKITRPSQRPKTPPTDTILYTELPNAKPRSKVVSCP
Procedure: (§2) For this experiment, different human KIR receptors (KIR2DL1, KIR2DL2, KIR2DL3, KIR2DL4, KIR2DL5A, KIR2DL5B, KIR3DL1, KIR3DL2, KIR3DL3) were first cloned into a proprietary lentiviral vector containing a thy1.1 tag (FIG. 17A). Then mouse CT26 cells, were transducted by these lentiviral constructs, and IGSF8 binding was tested with biotin-labelled recombinant IGSF8 hFc fusion protein. The mean fluorescence intensity (MFI) of IGSF8 binding to different CT26 cells were normalized by the expression of different KIRs on CT26 cells using an anti-thy1.1 mAb (Biolegend) via flow cytometry.
as §1

[3] = molecular target: B1; experiment: as above
Procedure: as §2, §1

KIR3DL2 = molecular target: T4, KIR3DL2 (human, UniProt P43630 22-455); experiment: as above
T4 construct: whole, on cells; On mouse CT26 cells, lentiviral vector with a thy1.1 tag; also called KIR3DL1/2
T4 sequence (P43630 22-455): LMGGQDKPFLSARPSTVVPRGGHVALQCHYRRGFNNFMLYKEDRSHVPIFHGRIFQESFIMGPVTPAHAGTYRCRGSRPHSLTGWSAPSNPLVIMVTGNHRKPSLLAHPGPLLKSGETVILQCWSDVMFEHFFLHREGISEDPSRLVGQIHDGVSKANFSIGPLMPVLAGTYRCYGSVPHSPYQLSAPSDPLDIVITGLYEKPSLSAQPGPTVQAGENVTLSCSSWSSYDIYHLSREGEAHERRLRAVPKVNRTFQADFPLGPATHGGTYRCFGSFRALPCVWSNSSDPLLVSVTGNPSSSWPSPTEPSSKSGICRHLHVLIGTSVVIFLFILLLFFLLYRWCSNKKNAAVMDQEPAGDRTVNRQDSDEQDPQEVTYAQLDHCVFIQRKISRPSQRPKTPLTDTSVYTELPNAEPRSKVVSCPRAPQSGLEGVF
Procedure: as §2, §1

[4] = molecular target: T2, recombinant human IGSF8 extracellular …; experiment: flow cytometry, IGSF8-hFc on CT26 cells with single-domain KIR3DL1/2 constructs, MFI normalized to Thy1.1
[5] = molecular target: T5, IGSF8 protein without D1 domain (UniProt Q969P0 150-579, limits assumed); experiment: flow cytometry, CT26 cells expressing IGSF8-D24 (IGSF8 without D1)
T5 construct: domain: D2-D4 (without D1); also called D24; D2-4
T5 sequence (looked up): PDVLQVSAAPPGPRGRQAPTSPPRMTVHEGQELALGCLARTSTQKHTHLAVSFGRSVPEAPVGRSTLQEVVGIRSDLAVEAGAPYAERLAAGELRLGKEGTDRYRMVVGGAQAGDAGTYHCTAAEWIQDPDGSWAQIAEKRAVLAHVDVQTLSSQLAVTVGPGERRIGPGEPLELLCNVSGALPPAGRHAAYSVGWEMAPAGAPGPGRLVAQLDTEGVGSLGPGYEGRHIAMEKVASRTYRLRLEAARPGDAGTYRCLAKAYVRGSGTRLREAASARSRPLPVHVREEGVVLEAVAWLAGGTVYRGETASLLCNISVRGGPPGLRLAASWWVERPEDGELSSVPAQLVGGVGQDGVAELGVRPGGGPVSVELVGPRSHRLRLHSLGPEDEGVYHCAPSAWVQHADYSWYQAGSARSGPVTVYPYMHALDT

## B1
[1]
  binding result: binds
[2]
  binding result: binds

B2: D1 domain of IGSF8 protein (ligand, UniProt Q969P0 28-149, looked up)
chain: REVLVPEGPLYRVAGTAVSISCNVTGYEGPAQQNFEWFLYRPEAPDTALGIVSTKDTQFSYAVFKSRVVAGEVQVQRLQGDAVVLKIARLQAQDAGIYECHTPSTDTRYLGSYSGKVELRVL
notes: domain: D1; also called D1 (Ig-V set) ECD of IGSF8
KIR3DL1
  binding result: binds
[3]
  binding result: binds
KIR3DL2
  binding result: binds

B3: KIR3DL1 D3 construct (receptor, human, UniProt P43629 222-316, looked up)
chain: EKPSLSAQPGPKVQAGESVTLSCSSRSSYDMYHLSREGGAHERRLPAVRKVNRTFQADFPLGPATHGGTYRCFGSFRHSPYEWSDPSDPLLVSVT
notes: domain: D3; On CT26 cells, thy1.1 tag vector; also called D1/D3 construct
[4]
  binding result: no binding

B4: KIR3DL2 D3 construct (receptor, human, UniProt P43630 222-316, looked up)
chain: EKPSLSAQPGPTVQAGENVTLSCSSWSSYDIYHLSREGEAHERRLRAVPKVNRTFQADFPLGPATHGGTYRCFGSFRALPCVWSNSSDPLLVSVT
notes: as for B3
[4]
  binding result: no binding

B5: Antibody C30 (B34) (antibody, human IgG1, V domains shown)
VH: EVQLLESGGGLVQPGGSLRLSCAASGFTFSSYAMSWVRQAPGKGLEWVSGITGSGGSTYYADSVKGRFTISRDNSKNTLYLQMNSLRAEDTAVYYCARGRQVDKWGQGTLVTVSS
VL: DIMLTQSPSSLSASVGDRVTITCRASQSIHNYLNWIQQTPGKAPKLLVFAASTLQRGVPPRYSGRGSGTEFTLTISSLQPEDFATYYCQQSYTTPLTFGGGTKVEIRR
notes: Fully human, expressed in CHO cells; also called mAb-B34 (C30)
[5]
  binding result: no binding
